Our source for the Kd values is article doi:10.1101/2019.12.20.884148.

The test deals with Galectin-3 (R&D Systems) (UniProt P17931). In words: SPR.
Chain of UniProt P17931 (P17931 whole entry): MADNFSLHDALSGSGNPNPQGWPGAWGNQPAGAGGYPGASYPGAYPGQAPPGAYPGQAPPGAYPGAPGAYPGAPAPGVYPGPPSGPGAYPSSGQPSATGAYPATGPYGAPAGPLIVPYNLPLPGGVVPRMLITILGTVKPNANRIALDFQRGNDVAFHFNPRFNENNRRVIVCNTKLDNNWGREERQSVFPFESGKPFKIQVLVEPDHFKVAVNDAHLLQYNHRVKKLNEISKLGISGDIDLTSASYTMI

One may read the Kd as a measure of binding affinity in units of concentration. The low end stands for tighter binding, the high end for weaker binding. Substance “Bovine lubricin (bPRG4) (natural protein)” displayed a dissociation constant Kd of 3.8 µM. In other words, the single-digit micromolar range.
